From the nanobody polyreactivity screen of Harvey et al. (2022)

Assay: yeast display, Sf9 membrane polyspecificity reagent, FACS + sequencing; frameworks hold sequencing errors
Outline: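 Polyreactivity labels are assigned by the sorting gate from which each nanobody was recovered. The gates were low and high (top ~1%), set on anti-HA fluorescence for expression and streptavidin fluorescence for reagent binding. Before sorting, galactose-induced (36–48 hours) yeast display cells were stained for 1 hour at 4 °C with 10% biotinylated, detergent-solubilized Sf9 membrane reagent.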

For “QVKLVESGGGLVQAGGSLRLSCAASGLIFIGYAMGWYRPAPGKEMELVASIRGVGSTNYADSVKGRFTISRDNAKNTVYLQMNSLKPEDTAVYYCPNSVDRALYTQTRGDYDYWGQGTQVTVSS”, which “polyreactivity (PSR sort gate)” value is on record?
Its value is “low polyreactivity”.

Which “polyreactivity (PSR sort gate)” value does the source give for “QVQLVESGGGLVQAGGSLRLSCAPSGRIFRYYAMGWYRQAPGKERELVATIRSGGSTNYADSVKGRFTISRDNEKNTVYLQMNSLKPEDTAVYYCAATGGILSTYDYWGQVTQVTVSS” here?
The value was “high polyreactivity”.

With “QVQLVESGGGLVQAGGSLRLSCAASGRTIPHNAMGWYRQAPGKERQLVATITAGSGSTYYADSVKGRFTISRDNAKNTVSLQLNSLKPEDTAVYYCNAKWTLYQSDYWYYIYDYWGQGTQVTVSS” as the sequence, how does the “polyreactivity (PSR sort gate)” value read?
The value was “low polyreactivity”.

With “QVQLVESGGGLVQAGGSLRLSCAASGSIFFDGNAMGWYRQAPGKERELVAAISVSGGSTYYADSVKGRFTISRDNAKNTVYLQMNSLKPEDTAVYYCAKYPSKSYVPGDYWGQGTQVTVSS” as the sequence, how does the “polyreactivity (PSR sort gate)” value read?
Its value is “low polyreactivity”.

For “QDQLVESGGGLVQAGGSLRLSCAASGLTFDWYTMGWYRQAPGKERELVATINSGGSTDYADSVKGRFTISRDNAKNTVYLQMNSLKPEDTAVYYCNAEYGYSGVGDDYWGQGTQVTVSS”, which “polyreactivity (PSR sort gate)” value is on record?
The value was “low polyreactivity”.

For “QVQLVESGGGLVQAGGSLRLSCAASGRISWVYPMGWYRKAPGKERELVAAITFSGGSTYYADSVKGRFTISRDNAKNSVYLQMNSLKPEDTAVYYCAADVLAIYSHRYYRYDSWGQGTQVTVSS”, which “polyreactivity (PSR sort gate)” value is on record?
Its value is “high polyreactivity”.

With “QVQLVESGGGLVQAGGSLRLSCAASGLIFYRYAMGWYRQAPGKERELVAAITASGGTTYYADSVKGRFTISRDNAKNTVYLQMNSLKPEDTAVYDCASPYTYWRRIGVDYDYWGQGTQVTVSS” as the sequence, how does the “polyreactivity (PSR sort gate)” value read?
Its value is “high polyreactivity”.

For “QVQLVESGGGLVQAGGSLRLSCAASGFIFYGNAMAWSRQAPGKEREFVAAINGRGVSTYYADSVKGRFTISRDNAKNSDYLQMNSLKPEDTAVYYCNKVYWGRGPLEYWGQGTQVTVSS”, which “polyreactivity (PSR sort gate)” value is on record?
The value was “high polyreactivity”.

With “HGQLVESAAGLVQAGGSLRLSGAASGLIFYDNMGWYRQAPAKDRELVAAISSSGGSTSYADSVKGRFTISRDNAKNTFYLQMNSLKPEDTAVYYCAADSYPAYLGFVGFDYWGLGTQVTVSS” as the sequence, how does the “polyreactivity (PSR sort gate)” value read?
Its value is “low polyreactivity”.

For “QVQLVESGGGLVQAGGSLRLICAASGLTFASYAMGWYRQAPGKERELVAAISSSGRTYYADSVKGRFTISRDNAKNTVYLQMNSLKPEDTAVYYCATRGLSRYYDYYYWGQGTQVTVSS”, which “polyreactivity (PSR sort gate)” value is on record?
Its value is “high polyreactivity”.

With “QVQLVESGGGLVQAGGSLRLSCAASGLTFHRYAMGWYRQAPGKERELVAAISRSGVTTRYADSVKGRFTISRDNAKNTVYLQMNSLKPEDTAVYYCAAVYRVRKITYDYWGQGTQVTVSS” as the sequence, how does the “polyreactivity (PSR sort gate)” value read?
The value was “high polyreactivity”.

With “QVQLVESGGGLVQAGGSLRLSCAASGSIFITYAMGWYRQAPGKERELVAAIRDSGDRTYYADSVKGRFTISRDYAKNTVYLQMNSLKPEDTAVYYCNARWQEPLKYDYWGQGTQVTVSS” as the sequence, how does the “polyreactivity (PSR sort gate)” value read?
The value was “low polyreactivity”.

Which “polyreactivity (PSR sort gate)” value does the source give for “QVQLVESGGGLVQAGGSLRISCAASGFIFTYYAMGWYRQAPGKERELVAAITKSGTSTYYADSVKGRFTISRDNAKNTVYLQMNSLKPEDTAVYYCNAVLWWDWEYDFYYWGQGTQVTVSS” here?
The value was “high polyreactivity”.

For “QVQLVESGGGLVQAGGSLRLSCAASGFTFDHNAMGWYRQAPGKERELVARITGTGDSTYYADSVKGRFTISRDNAKKTVYLQMNSLNPEDSADYYCNADRRYDFYDGYGYWGQGTQVTVSS”, which “polyreactivity (PSR sort gate)” value is on record?
The value was “low polyreactivity”.

Which “polyreactivity (PSR sort gate)” value does the source give for “QVQLVESGGGLVQAGGSLRLSCAASGSIFGVYAMGWYRQAPGKERELVAAISSRGSSTYYADSVKGRFTISRDNAKNTVYLQMNSLKPEDTAVYYCAARPGIRSYPPGYGYWGQGTQVTVSS” here?
The value was “high polyreactivity”.

For “QVQLVESGGGLVQAGGSLRLSCAASGRTFYKNAMGWYRQAPGKERELVAAISSRGGRTTYADSVKGRFTISRDNAKNTVYLQMNSLKPEDTAVYYCATDWAQVYHGTTKYYYWGQGTQVTVSS”, which “polyreactivity (PSR sort gate)” value is on record?
Its value is “high polyreactivity”.

With “QVQLVDSGGGLVQAGGSLRLSCAASGSTFRYNAMGWYRQAPGKERELVAAIDKRGDSTYADSVKGRFTISRDNAKNTVYLQLNSLKPEDTAVYYCAADSDSKYNYGFLWDTYEYWGQGTQVTVSS” as the sequence, how does the “polyreactivity (PSR sort gate)” value read?
The value was “low polyreactivity”.

For “QVQLVESGGGLVQAGGSLRLSCAASGSTFVTNDMGWYRQAPGKERDLVADISWSGGDTYYADSVKGRFTISRDNAKNTVYLQMNSLKPEDTAVYYCAARPDQGLAYSPLPWYNYWGQGTQVTVSS”, which “polyreactivity (PSR sort gate)” value is on record?
The value was “low polyreactivity”.

Which “polyreactivity (PSR sort gate)” value does the source give for “QVQLVESGGGLVQAGGSLRLSFAASGFTFVNYAMGWYRQAPGKDRELVAAIRRSGSRTYYADSVKGRFTISRDKAKNTVYLQKNSLKPEDTAVYYCAAVWYSLYGNWGQGNQVTVSS” here?
The value was “low polyreactivity”.

For “QVQLVESGGGLVQAGGSLRLSCAASGRIFTRYTMGWYRQAPGKESELVAAISRSGGSTYYADSVKGRFTISRDNEKNTVYLQMNSLKPEDTAVYYCAAKGPYTYGYGYWGQGTQVTVSS”, which “polyreactivity (PSR sort gate)” value is on record?
Its value is “high polyreactivity”.

For “QVQLVESGGGLVQAGGSLRLSCAASGSSLGLNAMGWYRQAPGKERELVAGISWRGGSTYYADSVKGRFTISRDNAKNTVYLQMNSLKPEDTAVYYCNAVRFYGRWRGYDYWGQGTQVTVSS”, which “polyreactivity (PSR sort gate)” value is on record?
The value was “high polyreactivity”.

For “QVQLVESGGGLVQAGGSLRLSCAASGSIFYGYAMGWYRQAPGRERELVAAIRYRGGRTDYGDSVKGRFTISRDNAKKTVYLQMNSLKPEDTAVYYCAKDLIRYGYLTYVYWGQGTQVTVSS”, which “polyreactivity (PSR sort gate)” value is on record?
The value was “high polyreactivity”.
